Data set [1] has as its target T1, His-CRP (cAMP receptor protein) (Escherichia coli, UniProt P0ACJ8 1-210). The data set can be described thus: EMSA.
Data set [2] deals with T1, His-CRP (cAMP receptor protein). The experiment in a line: DRaCALA.
For data set [3] the target is unchanged. The data set can be described thus: DRaCALA. This is another data set of the same source.
The target of data set [4] is Maltose binding protein (MBP) (UniProt P0AEX9 27-396). The experiment in a line: DRaCALA.

The text below walks through data of article PMC3326337.

T1 sequence (P0ACJ8 whole entry): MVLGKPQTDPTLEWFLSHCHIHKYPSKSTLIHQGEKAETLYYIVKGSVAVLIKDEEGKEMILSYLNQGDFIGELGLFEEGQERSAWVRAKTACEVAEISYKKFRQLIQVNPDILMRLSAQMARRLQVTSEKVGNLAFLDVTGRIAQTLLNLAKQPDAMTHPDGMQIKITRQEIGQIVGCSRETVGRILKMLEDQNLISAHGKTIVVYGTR

B1: ICAP oligo (vl1427/vl1428) (dsDNA)
DNA 1: GCAACGCAATAAATGTGATCTAGATCACATTTTAGGCACCC
DNA 2: GGGGTGCCTAAAATGTGATCTAGATCACATTTATTGCGTTG
For B1, the values for the dissociation constant Kd in data set [1] and in data set [2] were 0.081 nM and 0.036 nM, respectively.

B2: ICAP 8,10:G-C (gd132/gd133) (dsDNA)
DNA 1: AGGAGGAATAAATCTCATCTAGATGAGATTTTAGAGGAGG
DNA 2: CCTCCTCTAAAATCTCATCTAGATGAGATTTATTCCTCCT
For the molecule B2, the binding result in data set [3] is reported as “no binding”.

B3: ICAP 10:G-C (gd130/gd131) (dsDNA)
DNA 1: AGGAGGAATAAATGTCATCTAGATGACATTTTAGAGGAGG
DNA 2: CCTCCTCTAAAATGTCATCTAGATGACATTTATTCCTCCT
Turning to B3, the binding result in data set [3] is on record as “no binding”.

B4: ICAP 40-bp (gd126/gd127) (dsDNA)
DNA 1: AGGAGGAATAAATGTGATCTAGATCACATTTTAGAGGAGG
DNA 2: CCTCCTCTAAAATGTGATCTAGATCACATTTATTCCTCCT
With B4, the results for the binding result in data set [3] and in data set [4] were “binds” and “no binding”, respectively.
